Results from US20160237414A1 (CHILDREN S HOSPITAL MEDICAL CENTER, published 2016).
Positions count from the first letter of the chain named. In names and notes the source's numbering stands. Primed or numbered codes have the meaning given here. No end group written: not given here. FITC′ = fluorescein isothiocyanate (fluorescent probe)

T1: LIMP-2 in Gba1-/- fibroblasts (endogenous, detected by anti-LIMP2 immunofluorescence) (UniProt O35114 1-478, limits assumed)
T1 sequence (looked up): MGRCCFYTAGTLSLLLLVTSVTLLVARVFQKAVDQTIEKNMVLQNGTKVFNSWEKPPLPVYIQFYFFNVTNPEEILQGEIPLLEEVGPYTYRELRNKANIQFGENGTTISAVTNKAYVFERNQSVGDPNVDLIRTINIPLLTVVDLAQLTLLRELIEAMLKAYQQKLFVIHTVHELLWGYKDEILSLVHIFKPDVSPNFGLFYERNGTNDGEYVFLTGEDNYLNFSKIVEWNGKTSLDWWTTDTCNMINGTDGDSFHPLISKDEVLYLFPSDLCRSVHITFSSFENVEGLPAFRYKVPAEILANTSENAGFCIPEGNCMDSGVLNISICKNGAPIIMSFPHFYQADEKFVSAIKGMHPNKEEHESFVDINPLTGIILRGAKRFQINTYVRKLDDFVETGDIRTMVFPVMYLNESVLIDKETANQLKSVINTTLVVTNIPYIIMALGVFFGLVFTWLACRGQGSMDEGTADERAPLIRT

T2: Purified luminal domain LIMP-2 (ld-LIMP2) (UniProt Q14108 28-433, limits assumed)
T2 construct: domain: luminal domain; also called LIMP-2/SCARB2
T2 sequence (looked up): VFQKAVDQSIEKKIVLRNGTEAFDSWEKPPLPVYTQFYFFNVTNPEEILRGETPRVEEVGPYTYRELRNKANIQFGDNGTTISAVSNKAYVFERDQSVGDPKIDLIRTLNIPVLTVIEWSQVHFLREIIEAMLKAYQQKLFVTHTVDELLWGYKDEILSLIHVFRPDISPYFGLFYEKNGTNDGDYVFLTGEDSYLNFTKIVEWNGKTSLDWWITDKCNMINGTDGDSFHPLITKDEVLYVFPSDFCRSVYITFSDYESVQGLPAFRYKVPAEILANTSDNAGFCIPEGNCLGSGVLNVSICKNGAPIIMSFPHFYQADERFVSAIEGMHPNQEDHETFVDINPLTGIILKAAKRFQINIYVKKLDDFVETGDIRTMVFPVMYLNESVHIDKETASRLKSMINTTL

B1: ASPIIV (SEQ ID NO 16) (D399A) GCase (enzyme)
chain: ARPCIPKSFGYSSVVCVCNATYCDSFDPPTFPALGTFSRYESTRSGRRMELSMGPIQANHTGTGLLLTLQPEQKFQKVKGFGGAMTDAAALNILALSPPAQNLLLKSYFSEEGIGYNIIRVPMASCDFSIRTYTYADTPDDFQLHNFSLPEEDTKLKIPLIHRALQLAQRPVSLLASPWTSPTWLKTNGAVNGKGSLKGQPGDIYHQTWARYFVKFLDAYAEHKLQFWAVTAENEPSAGLLSGYPFQCLGFTPEHQRDFIARDLGPTLANSTHHNVRLLMLDDQRLLLPHWAKVVLTDPEAAKYVHGIAVHWYLDFLAPAKATLGETHRLFPNTMLFASEACVGSKFWEQSVRLGSWDRGMQYSHSIITNLLYHVVGWTDWNLALNPEGGPNWVRNFVASPIIVDITKDTFYKQPMFYHLGHFSKFIPEGSQRVGLVASQKNDLDAVALMHPDGSAVVVVLNRSSKDVPLTIKDPAVGFLETISPGYSIHTYLWRRQ
B2: DSPAAV (SEQ ID NO 19) (I402A+I403A) GCase, double mutant (enzyme)
chain: B1 chain with A399D, I402A, I403A
B3: DSPIAV (SEQ ID NO 18) (I403A) GCase (enzyme)
chain: B1 chain with A399D, I403A
B4: DSPAIV (SEQ ID NO 17) (I402A) GCase (enzyme)
chain: B1 chain with A399D, I402A
B5: AAA GCase (triple alanine mutant in the TKD sequence, amino acids 407-409) (enzyme)
chain: B1 chain with A399D, T407A, K408A, D409A
notes: Made from full length pCMV-GCase-GFP or YFP vectors; also called AAA mutant

Tests used:
[1] = biological target: T1, LIMP-2 in Gba1-/- fibroblasts …; assay: cell-based or functional assay
[2] = biological target: T2, Purified luminal domain LIMP-2 …; assay: in vitro immunoprecipitation of purified GCase with ldLIMP-2 (1:1) on anti-LIMP2 beads, immunoblot (FIG. 6B)
Source text: Immunoprecipitation of GCases with mutations in the TKD sequence: For immunoblots, Gba1 knockout mouse fibroblasts (null/null) were transfected with the GBA1 constructs (WT or mutants) and expressed for 5 days. The GCases from harvested cell lysates were purified using a GCase antibody affinity column (Dynabeads protein G crosslinked (BS3) with rabbit anti-human GCase antibody). […] Aliquots of each step (loading, wash and eluent) were collected and analyzed on 12.5% SDS gels. Immunoblots were developed using anti-human GCase antibody and AP conjugated color development kits. Mock experiments with either non-LIMP2 proteins added or no GCases added, were used as control. The quantitations of these immunoprecipitation data were obtained from densitometry measurements of the gels. The no-LIMP-2 bars are the controls for comparison, since GCase was processed through all steps without LIMP-2 to account for any losses of GCase; About 50% of the GCase was lost during processing.

[3] = biological target: T2, Purified luminal domain LIMP-2 …; assay: peptide binding to ldLIMP-2 at pH 6.8 (FIG. 9)
[4] = biological target: T2, Purified luminal domain LIMP-2 …; assay: peptide binding to ldLIMP2 at pH 6.8 (FIG. 9)
[5] = biological target: T2, Purified luminal domain LIMP-2 …; assay: fluorescence polarization, FITC peptide titrated, ldLIMP2 fixed at 50 nM (FIG. 7A)
Experimental: FIG. 7A-FIG. 7C: Binding and competition of fluorescent labeled or unlabeled DSPIIV (SEQ ID NO 15) GCase peptides to ldLIMP2. The change (δmP) in fluorescence polarization is plotted on the ordinate and the increasing concentrations of the various peptides are on the abscissa. FIG. 7A depicts saturation kinetics under conditions in which the concentration of ldLIMP2 (50 nM) was fixed. […] FIG. 7B depicts a similar study using unlabeled peptides as competitors. […] Each of the unlabeled peptides “competed” with the labeled peptides in the expected ratios. FIG. 7C depicts a competition study in which labeled (WT*) and unlabeled (WT) peptides were used in complementary competition studies.
Fluorescence Polarization: The DSPIIV (SEQ ID NO 15) and its mutants, and DDQRLLL (SEQ ID NO 14) peptides (FITC labeled or non-labeled) were synthesized (American Peptide Co., Vista, Calif.). Lyophilized peptides were solubilized in acetonitrile and then were diluted at least 10,000-fold into the reactions for fluorescence polarization assessments. The reactions were done at least in duplicate at various peptide and LIMP-2 concentrations (SpectraMax M5, Molecular Device). Fluorescence polarization data were collected and analyzed with SoftMax Pro 5.0 software. Reaction mixtures contained 100 mM phosphate, pH 6.8 and 1 mM DTT.

Binder	% Secreted [1] [%]	other results
B1	36	
B2	83	
B3	23	
B4	22	
B5		binding result [2]: no binding
ASPAAV-{FITC′} (also called ASPAAP) [ASPAAV peptide (triple mutant: alanines for D399, I402 and I403), FITC labeled]		percent decrease in binding [3]: ~90%; binding relative to WT [4]: < 10 % of WT
DSPIIV-{FITC′} (also called WT peptide; WT*) [DSPIIV (SEQ ID NO 15) GCase peptide, FITC labeled]		EC50 [5]: ~50 nM
